Results on one substance are retold here after PMC9751095.

The target of this experiment is Myc-TRAP1 (human) (UniProt Q12931). The experiment is described as follows: SPR; printed as "Ka 26 µM". As to conditions: enzyme; chains chain; remark: other sources report otherwise.
Sequence of Myc-TRAP1 (human) (Q12931 60-704): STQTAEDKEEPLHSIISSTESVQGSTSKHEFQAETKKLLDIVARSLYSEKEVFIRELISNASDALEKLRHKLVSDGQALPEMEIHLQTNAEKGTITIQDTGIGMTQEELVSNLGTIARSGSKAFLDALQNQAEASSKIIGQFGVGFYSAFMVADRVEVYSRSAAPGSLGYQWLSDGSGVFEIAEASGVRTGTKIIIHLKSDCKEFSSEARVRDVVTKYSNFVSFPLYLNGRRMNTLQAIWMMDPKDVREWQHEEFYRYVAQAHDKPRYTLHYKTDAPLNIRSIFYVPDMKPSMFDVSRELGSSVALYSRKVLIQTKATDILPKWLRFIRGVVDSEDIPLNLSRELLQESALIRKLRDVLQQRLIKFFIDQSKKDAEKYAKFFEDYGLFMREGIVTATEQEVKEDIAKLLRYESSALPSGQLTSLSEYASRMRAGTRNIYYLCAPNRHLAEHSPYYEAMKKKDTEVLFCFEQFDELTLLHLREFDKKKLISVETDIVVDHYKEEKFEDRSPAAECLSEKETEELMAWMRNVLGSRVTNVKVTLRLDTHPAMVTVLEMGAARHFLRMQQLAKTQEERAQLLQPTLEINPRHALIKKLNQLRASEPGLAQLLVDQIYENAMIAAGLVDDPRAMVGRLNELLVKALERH

Sequence of purified recombinant human cyclophilin D, P30405 30-207 (P30405 30-207): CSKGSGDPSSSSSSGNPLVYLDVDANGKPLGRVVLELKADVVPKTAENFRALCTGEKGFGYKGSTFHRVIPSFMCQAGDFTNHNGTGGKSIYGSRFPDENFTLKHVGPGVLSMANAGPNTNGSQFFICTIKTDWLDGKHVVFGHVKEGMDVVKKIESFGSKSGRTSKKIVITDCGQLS

The substance “purified recombinant human cyclophilin D, P30405 30-207” displayed an equilibrium dissociation constant (Kd) of 26 µM.
